For series [1], the system named is T1, AcrVIA1.
T1 sequence: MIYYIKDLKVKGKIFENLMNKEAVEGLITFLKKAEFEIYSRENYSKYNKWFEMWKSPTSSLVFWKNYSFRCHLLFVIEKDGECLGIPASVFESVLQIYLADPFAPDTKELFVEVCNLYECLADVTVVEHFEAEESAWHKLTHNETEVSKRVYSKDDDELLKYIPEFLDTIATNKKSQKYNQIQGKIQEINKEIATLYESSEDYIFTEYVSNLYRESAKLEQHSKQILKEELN

The subject of series [2] is T2, AcrVIA1-3xFLAG.
T2 sequence: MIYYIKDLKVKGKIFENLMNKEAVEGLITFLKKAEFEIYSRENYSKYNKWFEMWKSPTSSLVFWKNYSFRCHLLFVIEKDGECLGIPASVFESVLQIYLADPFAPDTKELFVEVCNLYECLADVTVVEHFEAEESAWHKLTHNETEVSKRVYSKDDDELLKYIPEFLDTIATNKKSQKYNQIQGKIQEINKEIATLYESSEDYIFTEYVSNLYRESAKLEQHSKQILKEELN

The target in series [3] is T3, AcrVIA1-3xFLAG.
T3 chain: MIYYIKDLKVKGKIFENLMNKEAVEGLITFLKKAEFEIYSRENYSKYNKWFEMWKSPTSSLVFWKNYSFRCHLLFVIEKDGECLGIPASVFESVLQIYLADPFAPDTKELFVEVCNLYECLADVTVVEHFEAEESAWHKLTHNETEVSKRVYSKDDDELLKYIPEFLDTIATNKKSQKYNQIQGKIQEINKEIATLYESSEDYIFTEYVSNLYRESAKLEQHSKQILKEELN

The target of series [4] is T4, AcrVIA1.
T4 chain: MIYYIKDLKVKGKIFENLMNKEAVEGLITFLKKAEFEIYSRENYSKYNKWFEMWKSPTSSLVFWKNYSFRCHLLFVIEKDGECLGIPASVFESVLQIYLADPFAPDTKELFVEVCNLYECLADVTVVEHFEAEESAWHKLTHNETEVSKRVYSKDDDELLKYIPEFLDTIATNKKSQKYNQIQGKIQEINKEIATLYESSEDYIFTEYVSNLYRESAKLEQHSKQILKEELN

Take L. seeligeri Cas13a-His6: in series [1], the “cis-RNase activity: cleavage of radiolabeled target RNA in vitro” value is “In the presence of excess AcrVIA1, however, target RNA cleavage was inhibited”; the “nonspecific cleavage of labeled non-target RNA, AcrVIA1 added before target RNA ("Acr first" lane)” value was “if the AcrVIA1 inhibitor is added to the reaction containing Cas13 before adding the target RNA, then AcrVIA1 prevents target RNA binding and no Cas13 activity is observed”; the “trans-cleavage of a labeled non-target RNA upon addition of unlabeled protospacer RNA in vitro” value is “AcrVIA1 inhibited Cas13a-mediated trans-cleavage of a labeled non-target RNA”. In addition, the “cis- and trans-RNA cleavage in vitro (FIG. 2A-B)” value in series [2] was “confirmed that both are active in vivo ... and in vitro (FIG. 2A-B)”.

B1: Leptotrichia buccalis Cas13a (protein)
chain: MKVTKVGGISHKKYTSEGRLVKSESEENRTDERLSALLNMRLDMYIKNPSSTETKENQKRIGKLKKFFSNKMVYLKDNTLSLKNGKKENIDREYSETDILESDVRDKKNFAVLKKIYLNENVNSEELEVFRNDIKKKLNKINSLKYSFEKNKANYQKINENNIEKVEGKSKRNIIYDYYRESAKRDAYVSNVKEAFDKLYKEEDIAKLVLEIENLTKLEKYKIREFYHEIIGRKNDKENFAKIIYEEIQNVNNMKELIEKVPDMSELKKSQVFYKYYLDKEELNDKNIKYAFCHFVEIEMSQLLKNYVYKRLSNISNDKIKRIFEYQNLKKLIENKLLNKLDTYVRNCGKYNYYLQDGEIATSDFIARNRQNEAFLRNIIGVSSVAYFSLRNILETENENDITGRMRGKTVKNNKGEEKYVSGEVDKIYNENKKNEVKENLKMFYSYDFNMDNKNEIEDFFANIDEAISSIRHGIVHFNLELEGKDIFAFKNIAPSEISKKMFQNEINEKKLKLKIFRQLNSANVFRYLEKYKILNYLKRTRFEFVNKNIPFVPSFTKLYSRIDDLKNSLGIYWKTPKTNDDNKTKEIIDAQIYLLKNIYYGEFLNYFMSNNGNFFEISKEIIELNKNDKRNLKTGFYKLQKFEDIQEKIPKEYLANIQSLYMINAGNQDEEEKDTYIDFIQKIFLKGFMTYLANNGRLSLIYIGSDEETNTSLAEKKQEFDKFLKKYEQNNNIKIPYEINEFLREIKLGNILKYTERLNMFYLILKLLNHKELTNLKGSLEKYQSANKEEAFSDQLELINLLNLDNNRVTEDFELEADEIGKFLDFNGNKVKDNKELKKFDTNKIYFDGENIIKHRAFYNIKKYGMLNLLEKIADKAGYKISIEELKKYSNKKNEIEKNHKMQENLHRKYARPRKDEKFTDEDYESYKQAIENIEEYTHLKNKVEFNELNLLQGLLLRILHRLVGYTSIWERDLRFRLKGEFPENQYIEEIFNFENKKNVKYKGGQIVEKYIKFYKELHQNDEVKINKYSSANIKVLKQEKKDLYIRNYIAHFNYIPHAEISLLEVLENLRKLLSYDRKLKNAVMKSVVDILKEYGFVATFKIGADKKIGIQTLESEKIVHLKNLKKKKLMTDRNSEELCKLVKIMFEYKMEEKKSEN
Regarding B1, the “cis-RNA cleavage of spc2-target RNA by L. buccalis Cas13a (10 nM) with AcrVIA1-3xFLAG at 400, 100, 10 or 1 nM” value in series [3] is listed as “AcrVIA1 does not inhibit Leptotrichia buccalis Cas13a”. Also, the “cis-RNA cleavage of spc2-target RNA by L. buccalis Cas13a (10 nM) with AcrVIA1 at 400, 100, 10 or 1 nM” value in series [4] is given as “Addition of AcrVIA1 had no effect on protospacer RNA cleavage by purified L. buccalis Cas13a^crRNA”.

Values taken from patent US20230193409A1.
